# Assay results: the supplement of paper PMC10567573
# B1: ANKRD40 (parent)
# chain: VRIQNPSLRENDFIEIELDRQELT
# B2: TRIM55 (parent)
# chain: FQMEKIEHGYENMNHFTVNLNREE
# Variants of: B1
# Assay: protein stability index of a GFP-peptide fusion (GPS, HEK-293T) (PSI 1-6); higher = more stable
# Conditions: c terminus: a fixed tail appended
# 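Also: lentivirally expressed fusions sorted by FACS into six bins by GFP to DsRed ratio, PSI derived from sequencing read proportions per bin multiplied by bin number.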
row,Variant,protein stability index
1,VRIQNPSLRENDFIEIDLDRQELT,2.7
2,VRIQNPSLRENDFIEICLDRQELT,1.65
3,VRIQNPSLRENDFIEILLDRQELT,1.98
4,VRIQNPSLRENDFIEIILDRQELT,1.97
5,VRIQNPSLRENDFIEIPLDRQELT,3.44
6,VRIQLPSLRENDFIEIELDRQELT,3.56
7,VRIQWPSLRENDFIEIELDRQELT,2.23
8,VRIQFPSLRENDFIEIELDRQELT,2.28
9,VRIQNPSLRENDFIEIEIDRQELT,2.01
10,VRIQNPSLRENDFIEIEMDRQELT,3.3
11,VRIQNPSLRENDFIEIERDRQELT,4.37
12,VRIQNPSLRENDFIEIESDRQELT,4.81
13,VLIQNPSLRENDFIEIELDRQELT,2.24
14,VDIQNPSLRENDFIEIELDRQELT,4.69
15,VAIQNPSLRENDFIEIELDRQELT,2.73
16,VYIQNPSLRENDFIEIELDRQELT,1.73
17,VEIQNPSLRENDFIEIELDRQELT,4.16
18,VHIQNPSLRENDFIEIELDRQELT,3.13
19,VMIQNPSLRENDFIEIELDRQELT,3.05
20,VRIQNPSLRENDDIEIELDRQELT,4.61
21,VRIQNPSLRENDEIEIELDRQELT,4.6
22,VRIQNPSLRENDYIEIELDRQELT,2.42
23,VRIQNPSLRENDSIEIELDRQELT,4.39
24,VRIQNPSLRENDKIEIELDRQELT,3.72
25,VRIQNPSLRENDFIEIELDRQENT,3.69

row,Variant,protein stability index
1,VRIQNPSLRENDFIEIELDRQERT,3.73
2,VRIQNPSLRENDFIEIELDRQEDT,4.25
3,VRIQNPSLRENDFIEIELDRQEPT,3.26
4,VRIQNPSLRENDFIEIELDRQECT,2.8
5,VRIQNPSLRENDFIEIELDRQEGT,3.99
6,VRIQNPSLRENDFIEIELDRQEFT,2.07
7,VRIQNPSLRENDFIEIELDRQELC,2.14
8,VRIQNPSLRENDFIEIELDRQELK,2.3
9,VRIQNPSLRENDFIEIELDRQELL,2.09
10,VRIQNPSLRENDFIEIELDRQELM,2.19
11,VRIQNPSLRENDFIEIELDRQELW,1.73
12,VRIQNPSLRENDFIEIELDRQELS,2.85
13,VRIQNPWLRENDFIEIELDRQELT,2.2
14,VRIQNPFLRENDFIEIELDRQELT,1.45
15,VRIQNPGLRENDFIEIELDRQELT,2.26
16,VRIQNPCLRENDFIEIELDRQELT,2.33
17,VRIQNPVLRENDFIEIELDRQELT,2.81
18,VRHQNPSLRENDFIEIELDRQELT,4.17
19,VRDQNPSLRENDFIEIELDRQELT,4.9
20,VRMQNPSLRENDFIEIELDRQELT,3.61
21,VRIQNPSLRERDFIEIELDRQELT,2.63
22,VRIQNPSLREWDFIEIELDRQELT,1.41
23,VRIQNPSLREDDFIEIELDRQELT,2.08
24,VRIQNPSLREMDFIEIELDRQELT,1.99
25,VRIQNPSLYENDFIEIELDRQELT,1.78

row,Variant,protein stability index
1,VRIQNPSLCENDFIEIELDRQELT,2.33
2,VRIQNPSLLENDFIEIELDRQELT,2.48
3,VRIQNPSLGENDFIEIELDRQELT,2.32
4,VRIQNPSLRENDFIEIELDSQELT,2.08
5,VRIQNPSLRENDFIEIELDKQELT,2.75
6,VRIQNPSLRENDFIEIELDEQELT,2.42
7,VRIQNPSLRDNDFIEIELDRQELT,2.31
8,VRIQNPSLRMNDFIEIELDRQELT,1.74
9,VRIQNPSLRNNDFIEIELDRQELT,2.15
10,VRIQNPSLRKNDFIEIELDRQELT,2.08
11,VRIQNPSLRANDFIEIELDRQELT,2.27
12,VRIQNPSLRPNDFIEIELDRQELT,2.5
13,VRIQNPSLRENDFIKIELDRQELT,2.47
14,VRIQNPSLRENDFIWIELDRQELT,1.97
15,VRIQNPSLRENDFIYIELDRQELT,2.04
16,VRIQNPSLRENDFILIELDRQELT,2.25
17,VRIQNPSLRENDFINIELDRQELT,3.29
18,VRIMNPSLRENDFIEIELDRQELT,2.04
19,VRIPNPSLRENDFIEIELDRQELT,2.63
20,VRIINPSLRENDFIEIELDRQELT,2.24
21,VRIKNPSLRENDFIEIELDRQELT,2.09
22,VRIANPSLRENDFIEIELDRQELT,2.16
23,VRIENPSLRENDFIEIELDRQELT,2.31
24,VRIQNPSFRENDFIEIELDRQELT,2.27
25,VRIQNPSGRENDFIEIELDRQELT,2.08

row,Variant,protein stability index
1,VRIQNGSLRENDFIEIELDRQELT,2.28
2,VRIQNWSLRENDFIEIELDRQELT,1.77
3,VRIQNDSLRENDFIEIELDRQELT,2.38
4,VRIQNISLRENDFIEIELDRQELT,1.52
5,VRIQNHSLRENDFIEIELDRQELT,2.65
6,VRIQNQSLRENDFIEIELDRQELT,2.6
7,VRIQNPSLRENDFSEIELDRQELT,4.42
8,VRIQNPSLRENDFIEIELNRQELT,1.94
9,VRIQNPSLRENDFIEIELFRQELT,1.56
10,VRIQNPSLRENDFIEIELERQELT,2.8
11,VRIQNPSLRENDFIEIELCRQELT,1.89
12,VRIQNPSLRENDFIEIELQRQELT,2.42
13,VRIQNPSLRENDFIEIELRRQELT,2.41
14,VRIQNPSLRENDFIEIELIRQELT,1.91
15,VRIQNPSLRENDFIEIELHRQELT,1.69
16,VRIQNPSLRENDFIENELDRQELT,5.11
17,VRIQNPSLRENDFIEYELDRQELT,3.15
18,VRIQNPSLRENDFIESELDRQELT,4.47
19,VRIQNPSLRENDFIEPELDRQELT,4.67
20,VRIQNPSLRENDFIEQELDRQELT,4.68
21,VRIQNPSLRENDFIEVELDRQELT,3.49
22,VRIQNPSLRENDFIEDELDRQELT,5
23,VRIQNPSLRENDFIERELDRQELT,4.75
24,NRIQNPSLRENDFIEIELDRQELT,4.46
25,YRIQNPSLRENDFIEIELDRQELT,3.41

row,Variant,protein stability index
1,TRIQNPSLRENDFIEIELDRQELT,3.96
2,VRIQNPSLRENIFIEIELDRQELT,2.08
3,VRIQNPSLRENWFIEIELDRQELT,2.37
4,VRIQNPSLRENCFIEIELDRQELT,2.46
5,VRIQNPSLRENPFIEIELDRQELT,2.58
6,VRIQNPSLRENSFIEIELDRQELT,1.83
7,VRIQNPSLRENDFIEIELDRMELT,2.01
8,VRIQNPSLRENDFIEIELDRKELT,2.24
9,VRIQNPSLRENDFIEIELDRLELT,1.8
10,VRIQNPSLRENDFIEIELDRYELT,2.32
11,VRIQNPSLRENDFIEIELDRDELT,1.84
12,VRIQNPSLRENDFIEIELDRCELT,2.15
13,VRIQNPSLRENDFIEIELDRQSLT,2.1
14,VRIQNPSLRENDFIEIELDRQILT,2.73
15,VRIQNPSLRENDFIEIELDRQPLT,2.34
16,VRIQNPSLRENDFIEIELDRQDLT,2.87
17,VRIQNPSLRENDFIEIELDRQCLT,1.68
18,VRIQNPSLRENDFIEIELDRQGLT,1.92
19,VRIQNPSLRENDFIEIELDRQHLT,2.57
20,VRIQNPSLRENDFIEIELDRQNLT,2.34
21,VRIQNPSLRENDFIEIELDRQMLT,1.93

# Variants of: B2
# Assay: as above
# Conditions: c terminus: a fixed tail appended
row,Variant,protein stability index
1,FQMEMIEHGYENMNHFTVNLNREE,2.83
2,FQMEVIEHGYENMNHFTVNLNREE,2.49
3,FQMEYIEHGYENMNHFTVNLNREE,2.16
4,FQMEKIEHGYENMNHFTVNLNREL,3.02
5,FQMEKIEHGYENMNHFTVNLNRET,2.12
6,FQEEKIEHGYENMNHFTVNLNREE,5.07
7,FQMEKIEHGYENMNHFTVNLDREE,3.65
8,FQMEKIEHGYENMNIFTVNLNREE,1.99
9,FQMEKIEHGYENMNSFTVNLNREE,3.14
10,FQMEKIEHGYENMNGFTVNLNREE,3.72
11,FQMEKIEHGYENMNHFIVNLNREE,2.06
12,FQMEKIEHGYENMNHFKVNLNREE,3.31
13,FQMEKIEHGYLNMNHFTVNLNREE,1.81
14,FQMEKIEHGYYNMNHFTVNLNREE,2.08
15,FRMEKIEHGYENMNHFTVNLNREE,3.07
16,FQMEKIEHGAENMNHFTVNLNREE,3.55
17,FQMEKIEHYYENMNHFTVNLNREE,2.11
18,FQMEKIEHHYENMNHFTVNLNREE,3.22
19,FQMEKIEHEYENMNHFTVNLNREE,3.38
20,FQMEKIEHMYENMNHFTVNLNREE,2.45
21,FQMEKIEHRYENMNHFTVNLNREE,2.91
22,FQMFKIEHGYENMNHFTVNLNREE,1.58
23,FQMQKIEHGYENMNHFTVNLNREE,2.42

row,Variant,protein stability index
1,FQMVKIEHGYENMNHFTVNLNREE,1.8
2,FQMEKIEKGYENMNHFTVNLNREE,2.84
3,FQMEKIECGYENMNHFTVNLNREE,2.65
4,FQMEKIESGYENMNHFTVNLNREE,3.02
5,GQMEKIEHGYENMNHFTVNLNREE,4.78
6,FQMEKIEHGYENMNHFTVFLNREE,2.29
7,FQMEKIEHGYENMNHFTVNLNRCE,1.67
8,FQMEKIEHGYENMNHFTVNLNRDE,3.09
9,FQMEKIEHGYENMNHFTVNLNRKE,2.26
10,FQMEKIEHGYENMNHFTVNLNRHE,1.77
11,FQMEKIYHGYENMNHFTVNLNREE,2.1
12,FQMEKIGHGYENMNHFTVNLNREE,2.1
13,FQMEKIPHGYENMNHFTVNLNREE,2.6
14,FQMEKIDHGYENMNHFTVNLNREE,2.63
15,FQMEKIEHGYENENHFTVNLNREE,3.67
16,FQMEKIEHGYENCNHFTVNLNREE,2.93
17,FQMEKIEHGYENGNHFTVNLNREE,3.75
18,FQMEKIEHGYENMNHFTANLNREE,3.24
19,FQMEKIEHGYENMNHFTNNLNREE,3.52
20,FQMEKIEHGYENMNHFTKNLNREE,3.27
21,FQMEKAEHGYENMNHFTVNLNREE,3.27
22,FQMEKEEHGYENMNHFTVNLNREE,4.13
23,FQMEKCEHGYENMNHFTVNLNREE,2.64

row,Variant,protein stability index
1,FQMEKWEHGYENMNHFTVNLNREE,2.06
2,FQMEKIEHGYENMNHFTVNLNSEE,3
3,FQMEKIEHGYENMNHFTVNLNPEE,2.99
4,FQMEKIEHGYENMNHFTVNLNGEE,2.67
5,FQMEKIEHGYENMNHVTVNLNREE,4.01
6,FQMEKIEHGYENMNHPTVNLNREE,4.4
7,FQMEKIEHGYENMNHHTVNLNREE,4.09
8,FQMEKIEHGYENMNHGTVNLNREE,4.23
9,FQMEKIEHGYENMNHITVNLNREE,3.65
10,FQMEKIEHGYENMNHYTVNLNREE,3.29
11,FQMEKIEHGYEEMNHFTVNLNREE,3.57
12,FQMEKIEHGYESMNHFTVNLNREE,2.3
13,FQMEKIEHGYENMNHFTVNNNREE,3.5
14,FQMEKIEHGYENMNHFTVNPNREE,2.88
15,FQMEKIEHGYENMNHFTVNYNREE,2.42
16,FQMEKIEHGYENMDHFTVNLNREE,3.45
17,FQMEKIEHGYENMHHFTVNLNREE,1.69
18,FQMEKIEHGYENMLHFTVNLNREE,2.29
19,FQMEKIEHGYENMFHFTVNLNREE,2.53
20,FQMEKIEHGYENMAHFTVNLNREE,3.17
21,FQMEKIEHGYENMGHFTVNLNREE,3.21
